Source: the Human Domainome abundance scans (Beltran et al. 2025)
± gives the uncertainty stated by the source.

B1: LIM and senescent cell antigen-like-containing domain protein 2, residues 13 to 71; numbered along this chain, Q7Z4I7 (parent)
chain: AVCQRCQARFSPAERIVNSNGELYHEHCFVCAQCFRPFPEGLFYEFEGRKYCEHDFQML

Variants of: B1
Assay: abundance fitness (aPCA) (normalised: wild type 0, dead -1); higher = more abundant; growth selection in yeast, the domain comes from the species named
Conditions: Homo sapiens
AVCQRCQARFSPAERIVNSKGELYHEHCFVCAQCFRPFPEGLFYEFEGRKYCEHDFQML [N20K] showed an abundance fitness of 0.797 ± 0.096. AVCQRCQARFSPAERIVNSMGELYHEHCFVCAQCFRPFPEGLFYEFEGRKYCEHDFQML [N20M] gave an abundance fitness of -0.155 ± 0.1. Variant AVCQRCQARFSPAERIVNSSGELYHEHCFVCAQCFRPFPEGLFYEFEGRKYCEHDFQML [N20S] has an abundance fitness of 0.087 ± 0.067. For AVCQRCQARFSPAERIVNSHGELYHEHCFVCAQCFRPFPEGLFYEFEGRKYCEHDFQML [N20H], the abundance fitness was 0.087 ± 0.11. In the case of AVCQRCQARFSPAERIVNSRGELYHEHCFVCAQCFRPFPEGLFYEFEGRKYCEHDFQML [N20R], the abundance fitness is reported as -0.161 ± 0.065. With AVCQRCQARFSPAERIVNSTGELYHEHCFVCAQCFRPFPEGLFYEFEGRKYCEHDFQML [N20T] the abundance fitness was -0.085 ± 0.11. AVCQRCQARFSPAERIVNSLGELYHEHCFVCAQCFRPFPEGLFYEFEGRKYCEHDFQML [N20L] gave an abundance fitness of -0.136 ± 0.062. AVCQRCQARFSPAERIVNSYGELYHEHCFVCAQCFRPFPEGLFYEFEGRKYCEHDFQML [N20Y] gave an abundance fitness of -0.376 ± 0.15. AVCQRCQARFSPAERIVNSIGELYHEHCFVCAQCFRPFPEGLFYEFEGRKYCEHDFQML [N20I] gave an abundance fitness of -0.482 ± 0.2. Work on AVCQRCQARFSPAERIVNSPGELYHEHCFVCAQCFRPFPEGLFYEFEGRKYCEHDFQML [N20P] yielded an abundance fitness of -0.528 ± 0.12. Work on AVCQRCQARFSPAERIVNSNAELYHEHCFVCAQCFRPFPEGLFYEFEGRKYCEHDFQML [G21A] yielded an abundance fitness of -0.045 ± 0.066. AVCQRCQARFSPAERIVNSNWELYHEHCFVCAQCFRPFPEGLFYEFEGRKYCEHDFQML [G21W] showed an abundance fitness of -0.752 ± 0.2. For AVCQRCQARFSPAERIVNSNCELYHEHCFVCAQCFRPFPEGLFYEFEGRKYCEHDFQML [G21C], the abundance fitness was -0.435 ± 0.13. In the case of AVCQRCQARFSPAERIVNSNEELYHEHCFVCAQCFRPFPEGLFYEFEGRKYCEHDFQML [G21E], the abundance fitness is reported as 0.053 ± 0.13. AVCQRCQARFSPAERIVNSNQELYHEHCFVCAQCFRPFPEGLFYEFEGRKYCEHDFQML [G21Q] gave an abundance fitness of -0.2 ± 0.11. AVCQRCQARFSPAERIVNSNRELYHEHCFVCAQCFRPFPEGLFYEFEGRKYCEHDFQML [G21R] gave an abundance fitness of -0.332 ± 0.073. Work on AVCQRCQARFSPAERIVNSNIELYHEHCFVCAQCFRPFPEGLFYEFEGRKYCEHDFQML [G21I] yielded an abundance fitness of -0.947 ± 0.36. In the case of AVCQRCQARFSPAERIVNSNFELYHEHCFVCAQCFRPFPEGLFYEFEGRKYCEHDFQML [G21F], the abundance fitness is reported as -0.4 ± 0.097. AVCQRCQARFSPAERIVNSNHELYHEHCFVCAQCFRPFPEGLFYEFEGRKYCEHDFQML [G21H] showed an abundance fitness of -0.178 ± 0.087. With AVCQRCQARFSPAERIVNSNVELYHEHCFVCAQCFRPFPEGLFYEFEGRKYCEHDFQML [G21V] the abundance fitness was -0.45 ± 0.071. Variant AVCQRCQARFSPAERIVNSNYELYHEHCFVCAQCFRPFPEGLFYEFEGRKYCEHDFQML [G21Y] has an abundance fitness of -0.518 ± 0.14. For AVCQRCQARFSPAERIVNSNPELYHEHCFVCAQCFRPFPEGLFYEFEGRKYCEHDFQML [G21P], the abundance fitness was -0.457 ± 0.11. For AVCQRCQARFSPAERIVNSNSELYHEHCFVCAQCFRPFPEGLFYEFEGRKYCEHDFQML [G21S], the abundance fitness was -0.054 ± 0.063. AVCQRCQARFSPAERIVNSNMELYHEHCFVCAQCFRPFPEGLFYEFEGRKYCEHDFQML [G21M] showed an abundance fitness of -0.328 ± 0.11. For AVCQRCQARFSPAERIVNSNKELYHEHCFVCAQCFRPFPEGLFYEFEGRKYCEHDFQML [G21K], the abundance fitness was -0.016 ± 0.12. Variant AVCQRCQARFSPAERIVNSNDELYHEHCFVCAQCFRPFPEGLFYEFEGRKYCEHDFQML [G21D] has an abundance fitness of -0.324 ± 0.12. Variant AVCQRCQARFSPAERIVNSNLELYHEHCFVCAQCFRPFPEGLFYEFEGRKYCEHDFQML [G21L] has an abundance fitness of -0.17 ± 0.06. In the case of AVCQRCQARFSPAERIVNSNNELYHEHCFVCAQCFRPFPEGLFYEFEGRKYCEHDFQML [G21N], the abundance fitness is reported as -0.063 ± 0.11. AVCQRCQARFSPAERIVNSNGHLYHEHCFVCAQCFRPFPEGLFYEFEGRKYCEHDFQML [E22H] gave an abundance fitness of 0.101 ± 0.096. Work on AVCQRCQARFSPAERIVNSNGVLYHEHCFVCAQCFRPFPEGLFYEFEGRKYCEHDFQML [E22V] yielded an abundance fitness of -0.098 ± 0.091. Work on AVCQRCQARFSPAERIVNSNGWLYHEHCFVCAQCFRPFPEGLFYEFEGRKYCEHDFQML [E22W] yielded an abundance fitness of -0.31 ± 0.088. For AVCQRCQARFSPAERIVNSNGSLYHEHCFVCAQCFRPFPEGLFYEFEGRKYCEHDFQML [E22S], the abundance fitness was -0.093 ± 0.057. AVCQRCQARFSPAERIVNSNGGLYHEHCFVCAQCFRPFPEGLFYEFEGRKYCEHDFQML [E22G] showed an abundance fitness of -0.096 ± 0.11. With AVCQRCQARFSPAERIVNSNGRLYHEHCFVCAQCFRPFPEGLFYEFEGRKYCEHDFQML [E22R] the abundance fitness was 0.537 ± 0.053. In the case of AVCQRCQARFSPAERIVNSNGFLYHEHCFVCAQCFRPFPEGLFYEFEGRKYCEHDFQML [E22F], the abundance fitness is reported as 0.133 ± 0.12. Work on AVCQRCQARFSPAERIVNSNGALYHEHCFVCAQCFRPFPEGLFYEFEGRKYCEHDFQML [E22A] yielded an abundance fitness of 0.079 ± 0.091. In the case of AVCQRCQARFSPAERIVNSNGQLYHEHCFVCAQCFRPFPEGLFYEFEGRKYCEHDFQML [E22Q], the abundance fitness is reported as 0.216 ± 0.075. AVCQRCQARFSPAERIVNSNGYLYHEHCFVCAQCFRPFPEGLFYEFEGRKYCEHDFQML [E22Y] gave an abundance fitness of -0.08 ± 0.1. For AVCQRCQARFSPAERIVNSNGCLYHEHCFVCAQCFRPFPEGLFYEFEGRKYCEHDFQML [E22C], the abundance fitness was 0.056 ± 0.1. Variant AVCQRCQARFSPAERIVNSNGKLYHEHCFVCAQCFRPFPEGLFYEFEGRKYCEHDFQML [E22K] has an abundance fitness of -0.01 ± 0.09. In the case of AVCQRCQARFSPAERIVNSNGILYHEHCFVCAQCFRPFPEGLFYEFEGRKYCEHDFQML [E22I], the abundance fitness is reported as -0.162 ± 0.1. Variant AVCQRCQARFSPAERIVNSNGDLYHEHCFVCAQCFRPFPEGLFYEFEGRKYCEHDFQML [E22D] has an abundance fitness of -0.598 ± 0.24. AVCQRCQARFSPAERIVNSNGNLYHEHCFVCAQCFRPFPEGLFYEFEGRKYCEHDFQML [E22N] showed an abundance fitness of 0.053 ± 0.1. AVCQRCQARFSPAERIVNSNGMLYHEHCFVCAQCFRPFPEGLFYEFEGRKYCEHDFQML [E22M] showed an abundance fitness of -0.093 ± 0.11. In the case of AVCQRCQARFSPAERIVNSNGTLYHEHCFVCAQCFRPFPEGLFYEFEGRKYCEHDFQML [E22T], the abundance fitness is reported as -0.006 ± 0.075.
